{
  "source": "patent US20250027068",
  "data": [
    {"target": "pooled human IgG", "units": {"Enzyme Activity Endpoint Assay (purified): Fab′2": "ng/µL", "Enzyme Activity Endpoint Assay (purified): Fc": "ng/µL", "Enzyme Activity Endpoint Assay (purified): IgG": "ng/µL", "Enzyme Activity Endpoint Assay (purified): scIgG": "ng/µL"}, "values": [
      {"protein": "PRT-630 (protein) MQITSVWTKGVTPLTPEQFRYNNEDVIHAPYLAHQGWYDITKAFDGKDNLLCGAATAGNMLHWWFDQNKEEIENYLKKYPEKQKIIFNNQELFDLKAAIDTKDSQTNSQLFNYFRDKAFPNLSARQLGVMPDLVLDMFINGYYLNVFKTQSTDVNRPYQDKDKRGGIFDAVFTRGDQTTLLTARHDLKNKGLNDISTIIKQELTEGRALALSHTYANVSISHVINLWGADFNAEGNLEAIYVTDSDANASIGMKKYFVGINAHGHVAISAKKIEGENIGAQVLGLFTLSSGQEIWEQLSLEHHHHHH", "Enzyme Activity Endpoint Assay (purified): Fab′2": 850, "Enzyme Activity Endpoint Assay (purified): Fc": 464, "Enzyme Activity Endpoint Assay (purified): IgG": 0, "Enzyme Activity Endpoint Assay (purified): scIgG": 0},
      {"protein": "PRT-665 (protein) MQITSVWTKGVTPPTPEQFRYNNEDVIHAPYLAHQGWYDITKAFDGKDNLLCGAATAGNMLHWWFDQNKTEIEAYLSKYPEKQKIIFNNQELFDLRAAINTKDSQTNSQLFNYFRDKAFPNLSARQLGVMPDLVLDMFINGYYLNVFKTQSTDVNRPYQDKDKRGGIFDAVFTRGDQTTLLTARHDLSNKGLNDISTIIKQELTEGRALALSHTYANVSISHVINLWGADFNAEGNLEAIYVTDSDSNASIGMKKYYVGINASGHVAISAKKIEGEVIGAQVLGLFTLSSGKEIWQKLSLEHHHHHH", "Enzyme Activity Endpoint Assay (purified): Fab′2": 816, "Enzyme Activity Endpoint Assay (purified): Fc": 414, "Enzyme Activity Endpoint Assay (purified): IgG": 63, "Enzyme Activity Endpoint Assay (purified): scIgG": 109},
      {"protein": "PRT-634 (protein) MQITSVWTKGVTPLTPEQFRYNNYDVIHAPYKPNQGWYDITKAFDGKDNLLCGAATAGNMLHWWFDQNKTEIEAYLSKHPEKQKIIFNNQELFDLKAAIDTKDSQTNSQLFNYFRDKAFPNLSARQLGVMPDLVLDMFINGYYLNVFKTQSTDVNRPYQDKDKRGGIFDAVFTRGDQTTLLTARHDLKNKGLNDISTIIKQELTEGKALALSHTYANVSISHVINLWGADFNAEGNLEAIYVTDSDANASIGMKKYFVGINAHGHVAISAKKIEGENIGAQVLGLFTLSSGKDIWQKLSLEHHHHHH", "Enzyme Activity Endpoint Assay (purified): Fab′2": 755, "Enzyme Activity Endpoint Assay (purified): Fc": 394, "Enzyme Activity Endpoint Assay (purified): IgG": 0, "Enzyme Activity Endpoint Assay (purified): scIgG": 0},
      {"protein": "PRT-632 (protein) MQITSVWTYGVTPLTPEQFRYNNYEVIHAPYKEGQGWYDITKAFDGKDNLLCGAATAGNMLHWWFDQNKTEIEAYLSKHPEKQKIIFNNQELFDLKAAIDTKDSQTNSQLFNYFRDKAFPNLSARQLGVMPDLVLDMFINGYYLNVFKTQSTDVNRPYQDKDKRGGIFDAVFTRGDQTTLLTARHDLKNKGLNDISTIIKQELTEGRALALSHTYANVSISHVINLWGADFNAEGNLEAIYVTDSDANASIGMKKYFVGINAHGHVAISAKKIEGENIGAQVLGLFTLSSGKDIWQKLSLEHHHHHH", "Enzyme Activity Endpoint Assay (purified): Fab′2": 703, "Enzyme Activity Endpoint Assay (purified): Fc": 399, "Enzyme Activity Endpoint Assay (purified): IgG": 0, "Enzyme Activity Endpoint Assay (purified): scIgG": 0},
      {"protein": "PRT-608 (protein) MQITSVWTKGVTPLTPEQFRYNNEDVIHAPYLAHQGWYDITKAFDGKDNLLCGAATAGNMLHWWFDQNKTEIEAYLSKHPEKQKIIFNNQELFDLKAAIDTKDSQTNSQLFNYFRDKAFPNLSARQLGVMPDLVLDMFINGYYLNVFKTQSTDVNRPYQDKDKRGGIFDAVFTRGDQTTLLTARHDLKNKGLNDISTIIKQELTEGRALALSHTYANVSISHVINLWGADFNAEGNLEAIYVTDSDADEKIGMKKYFVGINAHGHVAISAKKIEGENIGAQVLGLFTLSSGKDIWQKLSLEHHHHHH", "Enzyme Activity Endpoint Assay (purified): Fab′2": 863, "Enzyme Activity Endpoint Assay (purified): Fc": 484, "Enzyme Activity Endpoint Assay (purified): IgG": 0, "Enzyme Activity Endpoint Assay (purified): scIgG": 0},
      {"protein": "PRT-691 (protein) MQITTVWTKGVTPPTPEQFRYNNEDVIHAPYLPNQGWYDITKTFNGKDNLLCGAATAGNMLHWWFDQNKTEIEAYLSKYPEKQKIIFNNQELFDLRAAINTKDSQTNSQLFNYFRDKAFPNLSARQLGVMPDLVLDMFINGYYLNVFKTQSTDVNRPYQDRDKRGGIFDAVFNRGDQTTLLTARHDLKNKTLNDISTLIKQELSSGKALALSHTYANVSISHVINLWGADFNAEGNLEAIYVTDSDANASIGMKKYYVGVNAHGKVAISAKKIEGENIGAQVLGLFTLSSGKDIWQKLSLEHHHHHH", "Enzyme Activity Endpoint Assay (purified): Fab′2": 184, "Enzyme Activity Endpoint Assay (purified): Fc": 337, "Enzyme Activity Endpoint Assay (purified): IgG": 110, "Enzyme Activity Endpoint Assay (purified): scIgG": 682},
      {"protein": "PRT-563 (protein) MANQEIRYSEATPSHITSVWTKGVTPPTQFIQNEDVLHAPYIANQGWYDITKTFNGKDDLLCGAATAGNMLHWWFDQNKTQIENYLKKHPEKQKINFNGEQMFDVKEAIDTKDSQTDSALFSYFKDKAFPYLSTKHLGVFPDHVIDMFINGYRLSLTNHGPTPVKRQTKDPRGGIFDAVFTRGDQSKLLTARHDFKEKTLNEISQLIKQELTEGKALGLSHTYANVRINHVINLWGADFNAEGNLEAIYVTDSDSNASIGMKKYYVGVNAAGKVAISAKEIEGDNIGAQVLGLFTLSTGQDIWQQTNLEHHHHHH", "Enzyme Activity Endpoint Assay (purified): Fab′2": 816, "Enzyme Activity Endpoint Assay (purified): Fc": 389, "Enzyme Activity Endpoint Assay (purified): IgG": 0, "Enzyme Activity Endpoint Assay (purified): scIgG": 0},
      {"protein": "PRT-67 (protein) MANQEIRYSEVTPYHVTSVWTKGVTPPANFTQGEDVFHAPYVANQGWYDINKTFNGKDDLLCGAATAGNMLHWWFDQNKDQIKRYLEEHPEKQKINFNGEQMFDVKEAIDTKNHQLDSKLFEYFKEKAFPYLSTKHLGVFPDHVIDMFINGYRLSLTNHGPTPVKEGSKDPRGGIFDAVFTRGDQSKLLTSRHDFKEKNLKEISDLIKKELTEGKALGLSHTYANVRINHVINLWGADFDSNGNLKAIYVTDSDSNASIGMKKYFVGVNSAGKVAISAKEIKEDNIGAQVLGLFTLSTGQDSWNQTN", "Enzyme Activity Endpoint Assay (purified): Fab′2": 10, "Enzyme Activity Endpoint Assay (purified): Fc": 78, "Enzyme Activity Endpoint Assay (purified): IgG": 23, "Enzyme Activity Endpoint Assay (purified): scIgG": 61},
      {"protein": "PRT-69 (protein) MANQEIRYSEVTPYHVTSVWTKGVTPPANFTQGEDVFHAPYVANQGWYDITKTFNGKDDLLCGAATAGNMLHWWFDQNKDQIKRYLEEHPEKQKINFNGEQMFDVKEAIDTKNDQLDSKLFEYFKEKAFPYLSTKHLGVFPDHVIDMFINGYRLSLTNHGPTPVKEGSKDPRGGIFDAVFTRGDQSKLLTSRHDFKEKNLKEISDLIKKELTEGKALGLSHTYANVRINHVINLWGADFDSNGNLKAIYVTDSDSNASIGMKKYFVGVNSAGKVAISAKEIKEDNIGAQVLGLFTLSTGQDSWNQTN", "Enzyme Activity Endpoint Assay (purified): Fab′2": 45, "Enzyme Activity Endpoint Assay (purified): Fc": 121, "Enzyme Activity Endpoint Assay (purified): IgG": 14, "Enzyme Activity Endpoint Assay (purified): scIgG": 14},
      {"protein": "PRT-68 (protein) MANQEIRYSEVTPYHVTSVWTKGVTPPANFTQGEDVFHAPYVANQGWYDITKTFNGKDDLLCGAATAGNMLHWWFDQNKDQIKRYLEEHPEKQKINFNGEQMFDVKEAIDTKNHQLDSKLFEYFKEKAFPYLSTKHLGVFPDHVIDMFINGYRLSLTNHGPTPVKEGSKDPRGGIFDDVFTRGDQSKLLTSRHDFKEKNLKEISDLIKKELTEGKALGLSHTYANVRINHVINLWGADFDSNGNLKAIYVTDSDSNASIGMKKYFVGVNSAGKVAISAKEIKEDNIGAQVLGLFTLSTGQDSWNQTN", "Enzyme Activity Endpoint Assay (purified): Fab′2": 51, "Enzyme Activity Endpoint Assay (purified): Fc": 133, "Enzyme Activity Endpoint Assay (purified): IgG": 16, "Enzyme Activity Endpoint Assay (purified): scIgG": 16}
    ]}
  ]
}
